Assays:
Assay in all cases: cell-based or functional assay
[1] = biological target: HA of B/Florida/4/2006 (yamagata) (influenza B virus)
[2] = biological target: HA of A/Beijing/262/95 (H1N1) (influenza A virus)
[3] = biological target: HA of A/Shan dong/9/93 (H3N2) (influenza A virus)
[4] = biological target: HA of B/Hong Kong/330/2001 (victoria) (influenza B virus)
[5] = biological target: HA of A/Hong Kong/8/68 (H3N2) (influenza A virus)
[6] = biological target: HA of A/California/07/2009 (H1N1) (influenza A virus)
[7] = biological target: HA of B/Ohio/1/2005 (victoria) (influenza B virus)
[8] = biological target: HA of B/Malaysia/2506/2004 (victoria) (influenza B virus)
[9] = biological target: HA of B/Yamanashi/166/98 (yamagata) (influenza B virus)
[10] = biological target: HA of ca A/Panama/2007/99 (H3N2) (influenza A virus)
[11] = biological target: HA of A/Victoria/3/75 (H3N2) (influenza A virus)
[12] = biological target: HA of A/Wilson Smith N/33 (H1N1) (influenza A virus, UniProt P03454 18-565)
Chain of HA of A/Wilson Smith N/33 (H1N1) (P03454 18-565 limits assumed): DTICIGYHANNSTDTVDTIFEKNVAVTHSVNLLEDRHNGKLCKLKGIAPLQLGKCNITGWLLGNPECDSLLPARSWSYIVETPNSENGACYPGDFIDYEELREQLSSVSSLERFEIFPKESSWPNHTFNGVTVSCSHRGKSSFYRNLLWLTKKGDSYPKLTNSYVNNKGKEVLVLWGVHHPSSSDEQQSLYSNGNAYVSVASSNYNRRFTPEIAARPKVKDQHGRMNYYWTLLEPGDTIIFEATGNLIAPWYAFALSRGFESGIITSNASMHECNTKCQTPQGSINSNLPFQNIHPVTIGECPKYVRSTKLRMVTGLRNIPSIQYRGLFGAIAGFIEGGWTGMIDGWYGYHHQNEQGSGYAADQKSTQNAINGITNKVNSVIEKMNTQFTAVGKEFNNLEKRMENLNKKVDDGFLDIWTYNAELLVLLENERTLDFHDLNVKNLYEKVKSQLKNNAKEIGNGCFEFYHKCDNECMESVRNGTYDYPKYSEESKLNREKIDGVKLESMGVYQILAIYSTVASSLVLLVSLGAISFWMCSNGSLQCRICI

[13] = biological target: HA of ca B/Beijing/243/97 (victoria) (influenza B virus)
[14] = biological target: HA of B/Sichuan/379/99 (yamagata) (influenza B virus)
[15] = biological target: HA of A/Solomon Island/3/2006 (H1N1) (influenza A virus)

Binder	Neutralization (IC50) [1] [nM]	Neutralization (IC50) [2] [nM]	Neutralization (IC50) [3] [nM]	Neutralization (IC50) [4] [nM]	Neutralization (IC50) [5] [nM]	Neutralization (IC50) [6] [nM]	Neutralization (IC50) [7] [nM]	Neutralization (IC50) [8] [nM]	Neutralization (IC50) [9] [nM]	Neutralization (IC50) [10] [nM]	Neutralization (IC50) [11] [nM]	Neutralization (IC50) [12] [nM]	Neutralization (IC50) [13] [nM]	Neutralization (IC50) [14] [nM]	Neutralization (IC50) [15] [nM]
FY1/39 BiS1 100/44 (bispecific antibody) light: DIQMTQSPSSVSASVGDRVTITCRASQDISTWLAWYQQKPGKAPKLLIYAASSLQSGVPSRFSGSGSGTDFTLTISSLQPEDFATYFCQQANSFPPTFGCGTKLEIKGGGGSGGGGSGGGGSGGGGSEVQLVVSGGGLVKPGGSLRLSCAASGLSFLNAWMSWVRQAPGKCLEWVGRIKSNTDGGTTDYAAPVKGRFSISRDDSKNMLFLHMSSLRTEDTAVYYCATDGPYSDDFRSGYAARYRYFGMDVWGQGTTVTVSSGGGGSGGGGSDIQMTQSPSSLSASVGDRVTITCRTSQSLSSYLHWYQQKPGKAPKLLIYAASSLQSGVPSRFSGSGSGTDFTLTISSLQPEDFATYYCQQSRTFGQGTKVEIKRTVAAPSVFIFPPSDEQLKSGTASVVCLLNNFYPREAKVQWKVDNALQSGNSQESVTEQDSKDSTYSLSSTLTLSKADYEKHKVYACEVTHQGLSSPVTKSFNRGEC heavy: not shown	1.1	62.2	> 1000	5.3	31.4	32.5	2.6	4.1	0.1	> 1000	337	28.2	3.6	1.5	14.7
GL20/39FTL BiS4 100/44 (bispecific antibody) light: DIQMTQSPSSLSASVGDRVTITCRTSQSLSSYTHWYQQKPGKAPKLLIYAASSRGSGVPSRFSGSGSGTDFTLTISSLQPEDFATYYCQQSRTFGQGTKVEIK heavy (part 1 of 2): QVQLQQSGPGLVKPSQTLSLTCAISGDSVSSYNAVWNWIRQSPSRGLEWLGRTYYRSGWYNDYAESVKSRITINPDTSKNQFSLQLNSVTPEDTAVYYCARSGHITVFGVNVDAFDMWGQGTMVTVSS heavy (part 2 of 2): DIQMTQSPSSVSASVGDRVTITCRASQDISTWLAWYQQKPGKAPKLLIYAASSLQSGVPSRFSGSGSGTDFTLTISSLQPEDFATYYCQQANSFPPTFGCGTKLEIKGGGGSGGGGSGGGGSGGGGSEVQLVESGGGLVKPGGSLRLSCAASGFTFLNAWMSWVRQAPGKCLEWVGRIKSNTDGGTTDYAAPVKGRFTISRDDSKNTLYLQMSSLKTEDTAVYYCTTDGPYSDDFRSGYAARYRYFGMDVWGQGTTVTVSS	7.3	16.4	21.9	106	10.8	25.4	20.9	42.8	1.4	34.1	13.3	13.7	96.2	9.8	4.4
FY1 IgG (antibody, V domains shown) VH: QVQLQESGPGLVKPSQTLSLTCAISGDSVSSNNAVWNWIRQSPSRGLEWLGRTYYRSKWYNDYAESVKSRITVNPDTSKNQFSLHLKSVTPEDTAVFYCVRSGHITVFGVNVDAFDMWGQGTMVTVSS VL: DIQMTQSPSSLSASVGDRVTITCRTSQSLSSYLHWYQQKPGKAPKLLIYAASSLQSGVPSRFSGSGSGTDFTLTISSLQPEDFATYYCQQSRTFGQGTKVEIK	> 1000	21	34.6	> 1000	10.6	10.4	> 1000	> 1000	> 1000	104	12	8.8	> 1000	> 1000	3.1
FY1/94 BiS2 100/44 (bispecific antibody) light: DIQMTQSPSSLSASVGDRVTITCRTSQSLSSYLHWYQQKPGKAPKLLIYAASSLQSGVPSRFSGSGSGTDFTLTISSLQPEDFATYYCQQSRTFGQGTKVEIKRTVAAPSVFIFPPSDEQLKSGTASVVCLLNNFYPREAKVQWKVDNALQSGNSQESVTEQDSKDSTYSLSSTLTLSKADYEKHKVYACEVTHQGLSSPVTKSFNRGEC heavy: not shown	0.6	42	208	2.1	17.2	23.1	1.3	0.8	0.5	484	15.8	19.9	1.1	1.7	4.1
FY1/39 BiS3 100/44 (bispecific antibody) light: DIQMTQSPSSLSASVGDRVTITCRTSQSLSSYLHWYQQKPGKAPKLLIYAASSLQSGVPSRFSGSGSGTDFTLTISSLQPEDFATYYCQQSRTFGQGTKVEIKRTVAAPSVFIFPPSDEQLKSGTASVVCLLNNFYPREAKVQWKVDNALQSGNSQESVTEQDSKDSTYSLSSTLTLSKADYEKHKVYACEVTHQGLSSPVTKSFNRGEC heavy: not shown	5.9	20.2	7.8	112	5.8	9.9	8.1	43.7	0.7	149	45.2	10.6	21.5	12.3	2.5
FY1/94 BiS4 100/44 (bispecific antibody) light: DIQMTQSPSSLSASVGDRVTITCRTSQSLSSYLHWYQQKPGKAPKLLIYAASSLQSGVPSRFSGSGSGTDFTLTISSLQPEDFATYYCQQSRTFGQGTKVEIKRTVAAPSVFIFPPSDEQLKSGTASVVCLLNNFYPREAKVQWKVDNALQSGNSQESVTEQDSKDSTYSLSSTLTLSKADYEKHKVYACEVTHQGLSSPVTKSFNRGEC heavy: not shown	1.8	13.1	37.9	4	9.1	6.2	3	1.8	2.3	38.2	7.2	7.3	1.8	5.2	2.5
FY1/39 BiS2 100/44 (bispecific antibody) light: DIQMTQSPSSLSASVGDRVTITCRTSQSLSSYLHWYQQKPGKAPKLLIYAASSLQSGVPSRFSGSGSGTDFTLTISSLQPEDFATYYCQQSRTFGQGTKVEIKRTVAAPSVFIFPPSDEQLKSGTASVVCLLNNFYPREAKVQWKVDNALQSGNSQESVTEQDSKDSTYSLSSTLTLSKADYEKHKVYACEVTHQGLSSPVTKSFNRGEC heavy: not shown	1.7	61.3	72.1	7	10.2	18.7	2.8	5.6	0.4	> 1000	> 1000	17.7	6.1	2.1	9.9

From US20180155413A1 (AstraZeneca / MedImmune, published 2018)
